Assay results published in the nanobody polyreactivity screen of Harvey et al. (2022).

Assay: yeast display, Sf9 membrane polyspecificity reagent, FACS + sequencing; frameworks hold sequencing errors
In short: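 Nanobodies from a synthetic yeast display library (Saccharomyces cerevisiae BJ5465), induced 36–48 hours with galactose, were stained 1 hour at 4 °C with 10% biotinylated, detergent-solubilized Sf9 membrane reagent, enriched on streptavidin microbeads, then FACS-sorted. Anti-HA (expression) and streptavidin (reagent binding) fluorescence set low and high (top ~1%) gates. Polyreactivity labels come from the gate of origin. Genes were colony-PCR amplified, MiSeq 2 × 250 sequenced and filtered by CDR length.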

| Sequence | polyreactivity (PSR sort gate) |
| --- | --- |
| QVQLVESGGVLVQAGGSLRLSCAASGSLFSRYAMGWYRQAPGKERELVAAISSSGGSTYYADSVKGRFTISRDNAKNTVYLQMISLKREDTAVYDCGAELRYYLVWLYYWGQGTQVSVSS | low polyreactivity |
| QVQLVESGGGLVQAGGSLRLSCAASGRIFKNNAMGWYRQAPGKERELVAGISRSGGRTYYADSVKGRFTISRDNAKNTVYLQMNSLKPEDTAVYYCNAYAYYSHGVTTTYDYWGQGTQVTVSS | high polyreactivity |
| QVQLVESGGGLVQAGGSLRLSCAASGRIFGIYAMGWYRQAPGKERELVASITDGTITNYADSVKGRFTISRDNAKNTVYLQMNSLKPVDTAVYYCAAGTQAHAYVVRPIEMDYWGQGTQVTVSS | low polyreactivity |
| HVQLVESGGGLVQAGGSLRLSCAASVITFVPYAMGWYRQATGKERELVAAISWSGGSTYYADSVKGRFTISRDNAKNTVYLQMNSLKPEDTAVYYCAAQHDVRYDYWGQGTQVTVSS | low polyreactivity |
| QVQHVESGGGLVQAGGSLRLSCAASGRTFVRYAMGWSRPAPGKERELVAAISRSGVGTYYADSVKGRFTISRDNAKKTVYLQMNSLKPEDTAVYYCNALPGTQYNYWGQGTQVTVSS | high polyreactivity |
| QVQLVESGGGLVQAGGSLRLSCAASGRIFLPYAMGWYRHAPGKERELVAAISRTGDRTYYADSVKGRFTISRDNAKNTVYLHMNSLKPEDTAVYYCNTSLPPTVIRYHLRYPRYDHWGQGTQVTVSS | low polyreactivity |
| QVQLVESVGGLVQAGGSLRLSCAASGFTFRANAMGWYRQAPGKERELVAAINWSGTSTYYADSVKGRFTISRDNAKNTVYLQMNSLKPEDTAVYYCAVLFYGAKYDYWGQGTQVTVSS | low polyreactivity |
| QVQLVESGGGLVQAGGSLRLSCAASGSNFYPYAMGWYRQAPGKERELVAAITGTGGSTYYADSVKGRFTISRDNAKNTVYLQMNSLKPEDTAVYYCATRRRYYYSRYNYWGQGTQVTVSS | high polyreactivity |
| QVQLVESGGGLVQAGGSLRLSCAASGSIFPYNAMGWYRQAPGKERELVATINSRGGRTYYADSVKGRFTISRDNAKNTVYLQMNSLKPEDTAVYYCARYYSSALRYGYWGQGTQVTVSS | low polyreactivity |
| QVQLVESGGGLVQAGGSLRLSCAASGITFLWNVMGWYRQAPGKERELVATITSIGGITNYADSVKGRFTISRDNAKNTVYLQMNSLKPEDTAVYYCARDDRDIRGESGREGFLYDYWGQGTQVTVSS | low polyreactivity |
| QVQLVESGGGLVQAGGSLRLSCAASGFIFDYNAMVWYRQAPGKERELVAAISISGGGTYYADSVKGRFTISRDNAKNTVYLQMNSLKPEDTAVYYCATAGRYDAYDYWGQGTQVTVSS | low polyreactivity |
| KVQLVESGGGLVQAGGSLRISCAASGRICWGYVMGWYRQAPGKERELVAAISSGGDTHYADSVKGRFTISRDNAKNTVYLQMNSLKPEDTGVYYCAARPNFTPYEYGYWGQGTQVTVSS | low polyreactivity |
| QVQLQEGGGLVQAGGSLRLSCAASGYISSRPAMGWYRQAPRKERAFVATIADGTSTYYADSVKGRFTISRDNAKNTVYLQMNSLKPEDTAVYYCAAAYNTEFYLSYWGQGTQVTVSS | high polyreactivity |
| QVQLVESGGRLVQAGGSLRLSCAASGRTFPVYAMGWYRQAPGKERELVAAISWSGGSTYYADSVKGRFTISRDNAKNTVYLQMNSLKPEDTAVYYCAKAYHLGLGYRFDYWGQGTQVTVSS | high polyreactivity |
| QVQLVETGGGLVQAGGSLRLSCAASGSIFVLYAMVWSRQAPGKERELVAAISKRTGSSYYADSVKGRFTISRDHAKHTVYLQTNSLKPEDTAVYYCAARGRQYRYYDLDYWGQGTQVTLSS | low polyreactivity |
| QVQLVESGGGLVQPGGSLLLRGAASGSIYYRNVMGWYRPAPGKERELVAAISSGGNTYYADSVKGRFTISRDNAKNTVYLQMNSLKPVDTAVYYCNAEYEGLSFGWYEYWYDYWGQGTQVTVSS | high polyreactivity |
| QVQLVESGGGLVQAGGSLRLSCAASGYTFLDYAMGWYRQAPGKERELVAAINSGGSTYYADSEKGRFTISRDNAKNTVYLQMNSLKPEDTAVYYCAVDPPYSYSLSRYGYWGQGTQVTVSS | low polyreactivity |
| QVQLVESGGGLVQAGGSLRLSCAASGFTLDVNAIGWYRQAPGKERELVATISWGGASTYYADSVKGRFTISRDNAKNTVYLQMNSLKPEDTAVYYFAAQYYYPDDKGGYDYWGQGTQVTVSS | low polyreactivity |
| QVQLVESGGGLVQAGGSLRLSCAASGRIFVRYAMGWYRQAPGKERELVAAISKSGGSTYYADSVKGRFTISRDNAKNTVYLQMNSLKPEDTAVYYCNALVRRRPGYIRYDYWGQGTQVTVSS | low polyreactivity |
| QVQLVESGGCLVQAGGSLRLSSAPSGSTFPVNAMGWYRQAAGKERELVAAITYRDGDTYYADSVKGRFTISRDYAKNTVYLQMNSLKPEDTAVYYCNADVGRHGKNSHMDYWGHGTQVTVSS | low polyreactivity |
| QVQLVQSWGGLVQAGGSLRLICAASGSIIAYNAMGWYRQAPGKEREMVAAITISGGSTYYADSVKGRFTISRDNAKNNVYLQMNSLKPEDTAVYYSAAAIPGARSRRSYGKYFYWGQGTQVTVSS | low polyreactivity |
| QVQLVESGGGLVQAGGSLRLSCAASGRTFYYYAMGWYRQAPGKERELVAAITSTGGSTYYADSVKGRFTISRDNAKNTVYLQMNSLKPDDTAVYYCAADQVWGYDSWGQGPQVTVSS | low polyreactivity |

| Sequence | polyreactivity (PSR sort gate) |
| --- | --- |
| QVQLVESGAGLVQAGGSLRISCAASGRIFAQYAMGWYRQAPGKERELVAAITTTGRTYYADSVKGRFTISRDNAKNTVYLQMNSTKPEETAVYYCAVGYHAPKVSTSDPRYDYWGQGTQVTVSS | low polyreactivity |
| QVQLVESGGGLVQAGGSLRLSCAASGSILDIYAMGLYRQAPGKERELVAGISTSGGSTYYADSVMGRFTFSRDNAKITVYLQMNSLKPEDTAVYYCAKDYGYQGHTSTLYWAYLEYDFWGQVTQVTVSS | low polyreactivity |
| QVQLVESGGGLVQAGGSLRLSCAASGIIFFYYVMGWYRQAPGKERELVAAISSDGSSTYYADSVKGRFTISRDNAKNTVNLQMNSQKPEDTAVYYCAAELILYPYDFNFWGQGTQVTVSS | high polyreactivity |
| QVQLVESGGGLVQAGGSLRLSCAASGSTFFKYDMGWYRQAPGKDRELVAVITWSGGTTFYADSVKGRFTFSRDNAKNTVYLQMNSLKPEDTAVYYGAADYYGYRYDYWGQGTQVTVSS | low polyreactivity |
| QVQLVDSGGGLVQAGGSLLLSCSASGSIFFSYAMGLYRQAPGKEREFVAAINSDDASTYADSVKGRFTISRDNAKNTVYLQMNSLKPEDTAVYYCAASFLWSWYDYWGQGTQVTVSS | low polyreactivity |
| QDQLVESGGGLVPAAGSLRLSCASSGFSFRRNAMGCYRQAPGKEREFVAGITSGGSTYYADSVKGRFTISRDNAKNTVYLLLNSLKPEDTAVYFCAATYRRRYGYWGQGTQVTVSS | high polyreactivity |
| QVQLVESGGGLVQAGGSLRLSCAASGSTFYWYTMGWYRQAPGKEREMVATITSVGRTNYADSVKGRFTISRDNAKNTVYLQMNSLKPEDTAVYYCAASKARWPRGGSKYYYWGQGTQVSVSS | high polyreactivity |
| QVQLVESGGGIVQEGGSLRLSCAASGSTFRDYAMGWYRQAPGKERELVAAISSRGATTYYADSVKGRFTISRDNAKNTVYLQMNSLKPEDTAVYYCNARQRRNPGGYGYWGQVTQVTVSS | high polyreactivity |
| QVQLVESGGGLVKAGGSLRLSCAASGFTFRRNAMGWYRQAPGKERELVAAITYNGGTTYYADSVKGRFTISRDNAKNTVYLQMNSLKPEDTAVDYCNAPYGRQGYDYWGQGTQVTVSS | low polyreactivity |
| QVQLVESGGGLVQAGGSLRLSCAASGRIFGKYAMGWYRPAPGKERELVAAIDGSGSTNYADSVKGRFTISRDNAKNTVYLQMNSLKPEDTAVYYCATDHAQKFRYRSPREYWGEGTQVTVSS | low polyreactivity |
| QVQLVESGGGLVQAGGSLRFSCAASGSIFPYAMGWSIQEPGKERELVAAITSGVRTNYADSVKGRFTISRDNAKNPVDLQMNSLKPEATEVYYCAVLPRGSNGMDYWGQGTQVTVSS | low polyreactivity |
| HVQLVESGGGLVQAGGSLRLSCAASGSIFILYAMGWSRQAPGKERELLASISSSGGRTYYADSVKGRFTISRDNAKNTVYLQMNSLKPEDTAVYYCNAVGRYWSYGTIYDYWGHGTQVTVSS | high polyreactivity |
| QDQLVESWGGLVQAGGSLRLICASSGSNIGYNAMGWYRPAPVKERELVAAISYSGGSTYYADSVKGRFTISRDNAKNTVYFRMNSLKPEDTAVYYCNKYIRRYLIYGSWGQGSQVTVSS | high polyreactivity |
| QVQLVESGGGLVQAGGSLRLSCAASGNTYLYYGMGWYRQSPGKERDLVAAITQSGGTTYYADSVKGRFTISRDNAKNTVYLQLNSLKQEDTAVYYCAATRYYYYWYVYDDRGDYWGQGTQVTVSS | low polyreactivity |
| QVQLEESGGGIVQAGGSLRLSCAASGSIIILYAMGWSRQAPGKEREFVAAITWSGGSTYYADSVKGRFTISRDNAKNTVYLQMNSLKPEDTAVYYCAARIRTVAHVDYDYWGQGTQVTVSS | high polyreactivity |
| QVQLVESGGGLVQAGGSLRLSCAASGYTFYFYAMGCYRQAPGKERELVAAITGGGTTSYADSVKGRFTISRDNAKNTVYLQMNSLKPEDTAVYYCNVLFADKSDYWGQGTQVTVSS | low polyreactivity |
| QVQLVESGGGLVQAGGSLRLSCAASGSIFVSYAMGWYRQAPGKERELVAAITSIGTRTYYADSVKGRFTISRDNAKNTVYLQINSLKPEDTAVYYCNAPRFWSRHGLRDYWGQVTQVTVSS | high polyreactivity |
| QVQLVESGGGLVQAGGSLRLSCAASGRTFRYYAMGWYRQAPGKERELVATISSGGSTNYADSVKGRFTISRDNAKNTVYLQMNSLKPEDTAVYYCNARRSTDPARYYWGQGTQVTVSS | high polyreactivity |
| RVQLQESGGGLVQAGGSLRLSCAASGTIFIRGDMGWYRQAPGKEREFVASIDTGSNTYYADSEKGRFTISRDNAKNAVYLQMNCLKPGDTAVYYCVVDYQLSGRLRYWGQGTQVTLSS | low polyreactivity |
| QVQLVESGGGLVQAGGSLRLSCAASGSIFYRNAMGWYRQAPGKERELVAAISSGTSTYYADSVKGRFTISRDNAKNTVYLQMNSLKPEDTAVYYCAKQYAFVPWWSRYHGELDYWGQGTQVTVSS | low polyreactivity |
| QVQLVESGGGLVQAGGSLRLSCAASGSNFTPNTMGWYRQAPAKERELVAGISSGDSTDYADSVKVRFTISRDNAKNTVYLQLNSLNPEDPAVYYCAAPWYGYYSRYDFYYWGQGTQVTVSS | low polyreactivity |
